Experimental findings from PMC6932757, “Inhibition of FLT1 ameliorates muscular dystrophy phenotype by increased vasculature in a mouse model of Duchenne muscular dystrophy” (PLoS Genetics, 2019) are described below.

This assay has as its target T1, mouse FLT1-FC chimeric protein with His-tag (mouse, UniProt P35969 23-759).
T1 construct: FLT1 (VEGF receptor-1, VEGFR1), mouse, soluble form fused to FC; also called chimeric FLT1-FC; mouse soluble FLT1-FC chimeric protein; source: bought: R&D Systems (471-F1-100)
T1 sequence (looked up): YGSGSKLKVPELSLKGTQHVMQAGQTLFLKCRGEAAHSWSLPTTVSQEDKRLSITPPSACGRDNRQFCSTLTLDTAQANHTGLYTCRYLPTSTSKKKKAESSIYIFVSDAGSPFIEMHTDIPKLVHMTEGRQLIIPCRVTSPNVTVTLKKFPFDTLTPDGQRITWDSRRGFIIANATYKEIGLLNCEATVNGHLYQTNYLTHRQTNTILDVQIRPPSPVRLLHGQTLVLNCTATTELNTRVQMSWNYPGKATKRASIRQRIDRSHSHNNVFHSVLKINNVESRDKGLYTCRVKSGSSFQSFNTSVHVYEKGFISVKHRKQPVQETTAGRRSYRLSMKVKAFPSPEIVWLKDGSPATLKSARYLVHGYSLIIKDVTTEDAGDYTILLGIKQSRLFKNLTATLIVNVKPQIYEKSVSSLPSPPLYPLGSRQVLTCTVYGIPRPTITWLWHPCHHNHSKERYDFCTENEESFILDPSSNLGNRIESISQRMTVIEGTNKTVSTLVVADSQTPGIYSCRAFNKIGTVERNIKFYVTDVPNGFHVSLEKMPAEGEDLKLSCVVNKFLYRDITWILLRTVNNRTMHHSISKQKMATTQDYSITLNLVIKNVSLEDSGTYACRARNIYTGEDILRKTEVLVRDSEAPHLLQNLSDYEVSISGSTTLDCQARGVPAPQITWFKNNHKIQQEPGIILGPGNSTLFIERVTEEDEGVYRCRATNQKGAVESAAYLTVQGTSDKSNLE
Description: ELISA; mouse FLT1-FC (His-tag) coated on 96 well plates, blocked with 5% BSA; anti-FLT1 antibodies incubated, then mouse PlGF2; detected with biotin-conjugated anti-PlGF2 antibody and Streptavidin-HRP, TMB, 450 nm. Conditions: both partners purified. In general terms: An ELISA detects its analyte on a solid surface through an enzyme-linked reagent.

B1: recombinant mouse PlGF2 (ligand, UniProt P49764 19-158, looked up)
chain: VHSQGALSAGNNSTEVEVVPFNEVWGRSYCRPMEKLVYILDEYPDEVSHIFSPSCVLLSRCSGCCGDEGLHCVPIKTANITMQILKIPPNRDPHFYVEMTFSQDVLCECRPILETTKAERRKTKGKRKRSRNSQTEEPHP
notes: Placenta growth factor 2 (PlGF2), mouse, recombinant; probably the mature secreted protein (surmised); source: bought: R&D Systems (465-PL-010/CF)
B1: the binding result is “binds”.
